Three proteins from US20160274129 can be followed below.

Where “and” joins values, the source holds several entries; their conditions need not be identical. Equal values may be shown once.

In data set [1] the target is T1, α-fructosyl-valyl-histidyl-leucyl-threonine.
T1 chain: VHLT

The target of data set [2] is T2, α-fructosyl-valyl-histidyl-leucine.
T2 chain: VHL

In data set [3] the target is T3, α-fructosyl-valyl-histidyl-leucyl-threonyl-proryl-glutamyl-glutamyl-lysyl-seryl-alanyl-valyl-threonyl-alanyl-leucyl-tryptophyl-glycine.
T3 chain: VHLTPEEKSAVTALWG

For data set [4], the target named is T4, α-fructosyl-valyl-histidyl-leucyl-threonyl-proryl-glutamyl-glutamyl-lysine.
T4 chain: VHLTPEEK

The target of data set [5] is T5, α-fructosyl-valyl-histidine.
T5 chain: VH

Data set [6] has as its target T6, α-fructosyl-valyl-histidyl-leucyl-threonyl-proryl-glutamic acid.
T6 chain: VHLTPE

Data set [7] deals with T7, α-fructosyl-valyl-histidyl-leucyl-threonyl-proline.
T7 chain: VHLTP

B1: CFP-T7-H35 (protein)
chain: MTSNRADTRVIVVGGGGTIGSSTALHLVRSGYAPANITVLDTFEIPSAQSAGHDLNKIMGIDHRNKVDLQMSLEARQMWKEDELFQPFFHNTGRMDCEHTPKGIEKLKKLYQKLHDAGAGLEKTHAWLDNEDEILSKMPLLQRDQIQGWKAIWSQDGGWLAAAKAINAIGQFLKERGVKFGFGGAGSFKQPLFDDEGTTCIGVETADGTKYYADKVVLAAGAWSPTLVDLEDQCCSKAWVYAHIQLTPEEAAEYKGVPVVYNGEFGFFFEPDEFGVIKVCDEFPGFSRFKEHQPYGAPSPKRISVPRSHAKHPTDTYPDASEVSIKKAIATFLPRFQDKELFNRALCWCTDTADSALLMCEHPKWKNFILATGDSGHSFKILPNVGKYVVELIEGRLPEEMAYQWRWRPGGDALKSRRAAPPKDLADMPGWKHDPKL
B1 gave a Specific activity (U/mg), 1 mM αF4P, purified enzyme in data set [1] of 0.352 U/mg. Moreover, the Specific activity (U/mg), 1 mM αF3P, purified enzyme in data set [2] is 1.24 U/mg. Besides, in data set [3], the Specific activity (U/mg), 1 mM αF16P, purified enzyme came to 0.247 U/mg. Besides, the Specific activity (U/mg), 1 mM αF8P, purified enzyme in data set [4] is 1.59 U/mg. Besides, the Specific activity (U/mg), 1 mM αFVH, purified enzyme in data set [5] worked out at 1.9 U/mg. In addition, in data set [6], the Specific activity (U/mg), 1 mM αF6P, purified enzyme came to 4.27 U/mg; the “fold of specific activity on αF6P against FAOAo2 (Amadoriase 25/Comparative Example 2)” value is on record as 2 times (Amadoriase 26/Comparative Example 3) to 1,940 times (Amadoriase 25/Comparative Example 2); the αF6P oxidation activity ratio (crude enzyme; CFP-T7-H28 = 100) (relative (CFP-T7-H28 = 100)) was 206; the αF6P/αFV was found to be 0.323. Also, in data set [6], the αF6P/αFVH stood at 2.25. In addition, the Specific activity (U/mg), 1 mM αF5P, purified enzyme in data set [7] came to 2.15 U/mg.

B2: CFP-T7 (protein)
chain: MTSNRADTRVIVVGGGGTIGSSTALHLVRSGYAPANITVLDTFEIPSAQSAGHDLNKIMGIRLRNKVDLQMSLEARQMWKEDELFQPFFHNTGRMDCEHTPEGIEDLKKQYQALHDAGAGLEKTHAWLDNEDEILSKMPLLQRDQIQGWKAIWSQDGGWLAAAKAINAIGQFLKERGVKFGFGGAGSFKQPLFDDEGTTCIGVETADGTKYYADKVVLAAGAWSPTLVDLEDQCCSKAWVYAHIQLTPEEAAEYKGVPVVYNGEFGFFFEPDEFGVIKVCDEFPGFSRFKEHQPYGAPSPKRISVPRSHAKHPTDTYPDASEVSIKKAIATFLPRFQDKELFNRALCWCTDTADAALLMCEHPKWKNFILATGDSGHSFKILPNVGKYVVELIEGRLPEEMAYQWRWRPGGDALKSRRAAPPKDLADMPGWKHDPKL
With B2, the Specific activity (U/mg), 1 mM αF4P, purified enzyme in data set [1] is 0 U/mg. In addition, in data set [2], the Specific activity (U/mg), 1 mM αF3P, purified enzyme was 0 U/mg. This protein also displayed a Specific activity (U/mg), 1 mM αF16P, purified enzyme in data set [3] of 0 U/mg. In data set [4], this protein had a Specific activity (U/mg), 1 mM αF8P, purified enzyme of 0 U/mg. The Specific activity (U/mg), 1 mM αFVH, purified enzyme in data set [5] was found to be 16.5 U/mg. In data set [6], this protein registered a Specific activity (U/mg), 1 mM αF6P, purified enzyme of 0 U/mg; a αF6P oxidation activity (crude enzyme; αFVH oxidation activity = 100) (relative (αFVH = 100)) of 0; a αF6P/αFV of 0; a αF6P/αFVH of 0. This protein displayed a Specific activity (U/mg), 1 mM αF5P, purified enzyme in data set [7] of 0 U/mg.

B3: CFP-T7-H20 (protein)
chain: MTSNRADTRVIVVGGGGTIGSSTALHLVRSGYAPANITVLDTFEIPSAQSAGHDLNKIMGIDLRNKVDLQMSLEARQMWKEDELFQPFFHNTGRMDCEHTPEGIEKLKKLYQKLHDAGAGLEKTHAWLDNEDEILSKMPLLQRDQIQGWKAIWSQDGGWLAAAKAINAIGQFLKERGVKFGFGGAGSFKQPLFDDEGTTCIGVETADGTKYYADKVVLAAGAWSPTLVDLEDQCCSKAWVYAHIQLTPEEAAEYKGVPVVYNGEFGFFFEPDEFGVIKVCDEFPGFSRFKEHQPYGAPSPKRISVPRSHAKHPTDTYPDASEVSIKKAIATFLPRFQDKELFNRALCWCTDTADAALLMCEHPKWKNFILATGDSGHSFKILPNVGKYVVELIEGRLPEEMAYQWRWRPGGDALKSRRAAPPKDLADMPGWKHDPKL
As for B3, in data set [5], the Specific activity (U/mg), 1 mM αFVH, purified enzyme came to 4.28 U/mg. Also, in data set [6], the Specific activity (U/mg), 1 mM αF6P, purified enzyme came out at 0.85 U/mg; the αF6P oxidation activity (crude enzyme; αFVH oxidation activity = 100) (relative (αFVH = 100)) came out at 20.5; the αF6P/αFV was 0.0377 and 0.0389; the αF6P/αFVH is 0.205 and 0.198.
